Where a chain is given by its changes, count along the chain named. Numbers in names are those of the source. One block for each binder: values may come before it.
Tests used:
[1] = biological target: T1, rHuman ErbB2/Fc Chimera, CF (R&D Systems Cat#1129-ER) (human, UniProt P04626 23-652); test: ECL Multispot (MSD) assay, antigen spotted on plate, 10 nM Fab; blank spot 407
T1 construct: Bought recombinant Fc chimera; also called human epidermal growth factor 2 receptor; Fc part of the bought chimera not given

[2] = biological target: T2, Recombinant Human DLL4 (R&D Systems Cat#1506-D4/CF) (human, UniProt Q9NR61 27-524); test: as above
T2 construct: Bought recombinant protein; also called delta-like protein 4; rHuman DLL4

[3] = biological target: T3, rHuman IGF-1 sR, CF (R&D Systems Cat#391-GR) (human, UniProt P08069 31-932); test: as above
T3 construct: Bought soluble receptor; also called insulin-like growth factor-1 soluble receptor

[4] = biological target: T4, rHuman HGF R/c-MET/Fc Chimera, CF (R&D Systems Cat#358-MT/CF) (human, UniProt P08581 25-932); test: as above
T4 construct: Bought recombinant Fc chimera; also called HGF R/Fc; hepatocyte growth factor receptor; Fc part of the bought chimera not given
T4 sequence (P08581 25-932, change not shown): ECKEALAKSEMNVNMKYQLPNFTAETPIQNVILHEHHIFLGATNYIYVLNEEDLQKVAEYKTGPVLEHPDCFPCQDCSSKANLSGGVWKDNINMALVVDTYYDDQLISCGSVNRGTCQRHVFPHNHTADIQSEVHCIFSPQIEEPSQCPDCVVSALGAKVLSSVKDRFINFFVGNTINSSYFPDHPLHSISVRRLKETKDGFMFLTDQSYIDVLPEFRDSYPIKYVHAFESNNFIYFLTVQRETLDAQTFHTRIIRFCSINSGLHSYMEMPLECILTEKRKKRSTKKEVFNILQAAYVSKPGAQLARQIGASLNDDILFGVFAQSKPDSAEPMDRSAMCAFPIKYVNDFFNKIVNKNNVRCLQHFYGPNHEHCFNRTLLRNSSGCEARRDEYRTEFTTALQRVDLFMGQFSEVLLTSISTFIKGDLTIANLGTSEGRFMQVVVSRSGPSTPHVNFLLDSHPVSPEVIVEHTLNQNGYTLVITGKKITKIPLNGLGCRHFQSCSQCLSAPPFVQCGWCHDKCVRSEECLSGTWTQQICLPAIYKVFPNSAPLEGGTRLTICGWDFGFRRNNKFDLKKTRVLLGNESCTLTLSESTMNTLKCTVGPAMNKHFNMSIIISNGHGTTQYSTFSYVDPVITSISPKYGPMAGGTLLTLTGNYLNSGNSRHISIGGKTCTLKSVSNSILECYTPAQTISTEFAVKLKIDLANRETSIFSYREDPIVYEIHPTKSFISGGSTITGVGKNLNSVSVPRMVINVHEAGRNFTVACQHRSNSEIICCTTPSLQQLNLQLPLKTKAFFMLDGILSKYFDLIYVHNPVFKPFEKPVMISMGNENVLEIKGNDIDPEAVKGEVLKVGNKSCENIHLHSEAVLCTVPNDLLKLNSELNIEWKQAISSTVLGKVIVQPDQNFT

[5] = biological target: T5, rHuman P-Cadherin/Fc Chimera, CF (R&D Systems Cat#861-PC) (human, UniProt P22223 108-654); test: as above
T5 construct: Bought recombinant Fc chimera; Fc part of the bought chimera not given

[6] = biological target: T6, rHuman EGF R/Fc Chimera, CF (R&D Systems Cat#344-ER) (human, UniProt P00533 25-645); test: as above
T6 construct: Bought recombinant Fc chimera; also called epidermal growth factor receptor; Fc part of the bought chimera not given

[7] = biological target: T1, rHuman ErbB2/Fc Chimera, CF (R&D …); test: ECL Multispot (MSD) assay, antigen spotted on plate, 10 nM Fab; blank spot 338
[8] = biological target: T2, Recombinant Human DLL4 (R&D Systems …); test: as above
[9] = biological target: T3, rHuman IGF-1 sR, CF (R&D Systems …); test: as above
[10] = biological target: T4, rHuman HGF R/c-MET/Fc Chimera, CF (R&D …); test: as above
[11] = biological target: T5, rHuman P-Cadherin/Fc Chimera, CF (R&D …); test: as above
[12] = biological target: T6, rHuman EGF R/Fc Chimera, CF (R&D …); test: as above
[13] = biological target: T1, rHuman ErbB2/Fc Chimera, CF (R&D …); test: ECL Multispot (MSD) assay, antigen spotted on plate, 10 nM Fab; blank spot 322
[14] = biological target: T2, Recombinant Human DLL4 (R&D Systems …); test: as above
[15] = biological target: T3, rHuman IGF-1 sR, CF (R&D Systems …); test: as above
[16] = biological target: T4, rHuman HGF R/c-MET/Fc Chimera, CF (R&D …); test: as above
[17] = biological target: T5, rHuman P-Cadherin/Fc Chimera, CF (R&D …); test: as above
[18] = biological target: T6, rHuman EGF R/Fc Chimera, CF (R&D …); test: as above
[19] = biological target: T7, rHuman Notch-1/Fc Chimera, CF (R&D Systems Cat#3647-TK) (human, UniProt P46531 19-526); test: as above
T7 construct: Bought recombinant Fc chimera; Fc part of the bought chimera not given

[20] = biological target: T8, rHuman CD44/Fc Chimera, CF (R&D Systems Cat#3660-CD) (human, UniProt P16070 21-220); test: as above
T8 construct: Bought recombinant Fc chimera; Fc part of the bought chimera not given

[21] = biological target: T9, rHuman Erythropoietin R/Fc Chimera, CF (R&D Systems Cat#963-ER) (human, UniProt P19235 25-250); test: as above
T9 construct: Bought recombinant Fc chimera; also called EPO R; EPO R/Fc; Fc part of the bought chimera not given
T9 sequence (looked up): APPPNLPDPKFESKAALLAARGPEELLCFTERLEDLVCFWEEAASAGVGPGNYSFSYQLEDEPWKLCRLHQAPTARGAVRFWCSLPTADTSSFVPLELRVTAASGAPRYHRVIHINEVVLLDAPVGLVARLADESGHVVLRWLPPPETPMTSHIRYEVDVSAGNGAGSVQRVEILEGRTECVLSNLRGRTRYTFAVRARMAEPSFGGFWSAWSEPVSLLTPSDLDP

[22] = biological target: T1, rHuman ErbB2/Fc Chimera, CF (R&D …); test: ECL Multispot (MSD) assay, antigen spotted on plate, 10 nM Fab; blank spot 367
[23] = biological target: T2, Recombinant Human DLL4 (R&D Systems …); test: as above
[24] = biological target: T3, rHuman IGF-1 sR, CF (R&D Systems …); test: as above
[25] = biological target: T4, rHuman HGF R/c-MET/Fc Chimera, CF (R&D …); test: as above
[26] = biological target: T5, rHuman P-Cadherin/Fc Chimera, CF (R&D …); test: as above
[27] = biological target: T6, rHuman EGF R/Fc Chimera, CF (R&D …); test: as above
[28] = biological target: T7, rHuman Notch-1/Fc Chimera, CF (R&D …); test: as above
[29] = biological target: T8, rHuman CD44/Fc Chimera, CF (R&D Systems …); test: as above
[30] = biological target: T9, rHuman Erythropoietin R/Fc Chimera, CF …; test: as above
[31] = biological target: T1, rHuman ErbB2/Fc Chimera, CF (R&D …); test: ECL Multispot (MSD) assay, antigen spotted on plate, 10 nM Fab; blank spot 151
[32] = biological target: T2, Recombinant Human DLL4 (R&D Systems …); test: as above
[33] = biological target: T3, rHuman IGF-1 sR, CF (R&D Systems …); test: as above
[34] = biological target: T4, rHuman HGF R/c-MET/Fc Chimera, CF (R&D …); test: as above
[35] = biological target: T5, rHuman P-Cadherin/Fc Chimera, CF (R&D …); test: as above
[36] = biological target: T6, rHuman EGF R/Fc Chimera, CF (R&D …); test: as above
[37] = biological target: T7, rHuman Notch-1/Fc Chimera, CF (R&D …); test: as above
[38] = biological target: T8, rHuman CD44/Fc Chimera, CF (R&D Systems …); test: as above
[39] = biological target: T9, rHuman Erythropoietin R/Fc Chimera, CF …; test: as above

B1: Fab VH1-46_IGHD6-6*01_IGHJ1*01 S102A/S103P/S104F/H111F & L6_IGKJ1*01 (Fab, V domains shown)
VH: QVQLVQSGAEVKKPGASVKVSCKASGYTFTSYYMHWVRQAPGQGLEWMGIINPSGGSTSYAQKFQGRVTMTRDTSTSTVYMELSSLRSEDTAVYYCAREEYAPFSAEYFQFWGQGTLVTVSS
VL: not shown
notes: Fab expressed in E. coli: VH joined to CH1 from Plasmid A (with His6 and Flag tags), VL joined to kappa CL from Plasmid C; also called APFF; H:APFF & L:wt
ECL signal [1]: 292 | ECL signal [2]: 126000 | ECL signal [3]: 357 | ECL signal [4]: 237 | ECL signal [5]: 277 | ECL signal [6]: 329 | ECL signal [7]: 379 | ECL signal [8]: 149000 | ECL signal [9]: 468 | ECL signal [10]: 332 | ECL signal [11]: 399 | ECL signal [12]: 425

B2: Fab VH1-46_IGHD6-6*01_IGHJ1*01 S102A/S103P/S104F/H111F S84R & L6_IGKJ1*01 (Fab, V domains shown)
VH: B1 VH with S84R
VL: not shown
notes: Fab expressed in E. coli: VH joined to CH1 from Plasmid A (with His6 and Flag tags), VL joined to kappa CL from Plasmid C; also called APFF S84R
ECL signal [13]: 372 | ECL signal [14]: 139000 | ECL signal [15]: 395 | ECL signal [16]: 392 | ECL signal [17]: 310 | ECL signal [18]: 435 | ECL signal [19]: 377 | ECL signal [20]: 335 | ECL signal [21]: 393

Continued, values first:

ECL signal [22]: 354 | ECL signal [23]: 164000 | ECL signal [24]: 405 | ECL signal [25]: 317 | ECL signal [26]: 517 | ECL signal [27]: 301 | ECL signal [28]: 400 | ECL signal [29]: 386 | ECL signal [30]: 528
B3: Fab VH1-46_IGHD6-6*01_IGHJ1*01 S102A/S103P/S104F/H111F S84K & L6_IGKJ1*01 (Fab, V domains shown)
VH: B1 VH with S84K
VL: not shown
notes: Fab expressed in E. coli: VH joined to CH1 from Plasmid A (with His6 and Flag tags), VL joined to kappa CL from Plasmid C; also called APFF S84K

ECL signal [31]: 297 | ECL signal [32]: 163000 | ECL signal [33]: 281 | ECL signal [34]: 274 | ECL signal [35]: 180 | ECL signal [36]: 293 | ECL signal [37]: 372 | ECL signal [38]: 352 | ECL signal [39]: 328
B4: Fab VH1-46_IGHD6-6*01_IGHJ1*01 S102A/S103P/S104F/H111F S84T & L6_IGKJ1*01 (Fab, V domains shown)
VH: B1 VH with S84T
VL: not shown
notes: Fab expressed in E. coli: VH joined to CH1 from Plasmid A (with His6 and Flag tags), VL joined to kappa CL from Plasmid C; also called APFF S84T

Reference: patent publication US20120316071A1 (published 2012)
